Test results as given in publication doi:10.1101/2021.01.07.425795 (bioRxiv, 2021).
Numbering of substitutions follows the chain as printed. Like-named read-outs stand apart in the source and are kept apart here.

Columns and labels:
Experiment in all cases: SEC
[1] = target: T1, ACAD9 (wild type, without a tag) (human, UniProt Q9H845 38-621)
T1 sequence (looked up): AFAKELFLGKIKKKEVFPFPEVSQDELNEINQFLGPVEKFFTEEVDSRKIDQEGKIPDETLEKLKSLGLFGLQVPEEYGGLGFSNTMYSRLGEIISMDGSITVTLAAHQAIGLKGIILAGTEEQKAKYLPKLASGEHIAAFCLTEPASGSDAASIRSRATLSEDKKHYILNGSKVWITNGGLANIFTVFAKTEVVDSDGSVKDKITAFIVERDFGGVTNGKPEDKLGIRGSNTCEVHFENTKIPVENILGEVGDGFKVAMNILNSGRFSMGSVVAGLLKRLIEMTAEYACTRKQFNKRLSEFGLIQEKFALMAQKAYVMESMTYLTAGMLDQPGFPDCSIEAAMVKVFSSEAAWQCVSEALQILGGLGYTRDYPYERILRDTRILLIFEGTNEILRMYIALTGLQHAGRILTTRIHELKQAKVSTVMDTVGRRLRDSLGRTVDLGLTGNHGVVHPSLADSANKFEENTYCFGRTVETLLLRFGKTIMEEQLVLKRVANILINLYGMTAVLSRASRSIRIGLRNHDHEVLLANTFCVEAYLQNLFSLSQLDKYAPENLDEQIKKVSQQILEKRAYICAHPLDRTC

SEC = target: the molecule itself
[2] = target: T1, ACAD9 (wild type, without a tag); remark: listed apart in the source
ACAD9 Arg469Trp = target: T2, ACAD9 Arg469Trp (human, UniProt Q9H845 38-621, Arg469Trp)
T2 sequence (looked up): T1 sequence (looked up) with R432W

ACAD9 Arg518His = target: T3, ACAD9 Arg518His (human, UniProt Q9H845 38-621, Arg518His)
T3 sequence (looked up): T1 sequence (looked up) with R481H

ACAD9 Glu426Gln = target: T4, ACAD9 Glu426Gln (human, UniProt Q9H845 38-621, Glu426Gln)
T4 sequence (looked up): T1 sequence (looked up) with E389Q

B1: His6-ECSIT (natural protein, human, UniProt Q9BQ95 49-431, looked up)
chain: SSEQSLVPSPPEPRQRPTKALVPFEDLFGQAPGGERDKASFLQTVQKFAEHSVRKRGHIDFIYLALRKMREYGVERDLAVYNQLLNIFPKEVFRPRNIIQRIFVHYPRQQECGIAVLEQMENHGVMPNKETEFLLIQIFGRKSYPMLKLVRLKLWFPRFMNVNPFPVPRDLPQDPVELAMFGLRHMEPDLSARVTIYQVPLPKDSTGAADPPQPHIVGIQSPDQQAALARHNPARPVFVEGPFSLWLRNKCVYYHILRADLLPPEEREVEETPEEWNLYYPMQLDLEYVRSGWDNYEFDINEVEEGPVFAMCMAGAHDQATMAKWIQGLQETNPTLAQIPVVFRLAGSTRELQTSSAGLEEPPLPEDHQEEDDNLQRQQQGQS
stoichiometry N [1]: 1 ECSIT chains per ACAD9 chain (one dimer with one dimer)
stoichiometry N (SEC): 2
stoichiometry N [2]: 1 mol/mol
binding result (ACAD9 Arg469Trp): binds
binding result (ACAD9 Arg518His): binds
binding result (ACAD9 Glu426Gln): binds
